Test results from US20070280945A1 (Regeneron, published 2007).
Positions count from the first letter of the chain named.

T1: hIL-6R on hIL-6-responsive human cells (XG-1 myeloma line, HepG2 hepatoma line) (human, UniProt P08887 20-468)
T1 sequence (looked up): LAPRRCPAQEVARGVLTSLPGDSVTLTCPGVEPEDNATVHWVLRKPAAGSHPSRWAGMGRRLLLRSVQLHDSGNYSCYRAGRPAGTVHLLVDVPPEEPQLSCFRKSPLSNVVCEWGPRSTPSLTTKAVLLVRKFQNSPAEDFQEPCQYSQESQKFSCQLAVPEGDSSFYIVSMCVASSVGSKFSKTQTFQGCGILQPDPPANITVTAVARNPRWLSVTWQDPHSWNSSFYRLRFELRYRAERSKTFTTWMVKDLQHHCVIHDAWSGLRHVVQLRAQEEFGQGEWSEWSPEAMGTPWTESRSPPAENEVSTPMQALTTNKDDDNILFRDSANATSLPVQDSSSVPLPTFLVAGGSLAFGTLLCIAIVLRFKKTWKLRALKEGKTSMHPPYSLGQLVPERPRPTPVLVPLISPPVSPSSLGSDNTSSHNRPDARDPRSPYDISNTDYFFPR

T2: recombinant hIL-6R protein, monomeric form (human, UniProt P08887 20-358)
T2 construct: also called monomeric hIL-6R; Human IL6R
T2 sequence: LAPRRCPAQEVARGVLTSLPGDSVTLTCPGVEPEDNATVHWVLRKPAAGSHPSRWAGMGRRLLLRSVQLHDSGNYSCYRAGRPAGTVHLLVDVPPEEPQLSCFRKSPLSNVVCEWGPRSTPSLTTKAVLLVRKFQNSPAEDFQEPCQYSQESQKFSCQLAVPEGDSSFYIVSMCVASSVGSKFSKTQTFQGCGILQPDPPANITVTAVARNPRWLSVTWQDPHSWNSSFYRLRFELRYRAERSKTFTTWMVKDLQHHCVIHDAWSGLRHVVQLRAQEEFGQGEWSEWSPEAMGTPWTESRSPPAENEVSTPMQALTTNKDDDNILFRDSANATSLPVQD

T3: hIL-6R recombinant protein (plate-coated, Example 5) (human, UniProt P08887 20-358, limits assumed)
T3 construct: also called antigen
T3 sequence: T2 sequence

T4: hIL-6R-hFc (human, UniProt P08887 20-358)
T4 construct: also called dimeric hIL-6R; Dimer; not shown: human Fc (hFc)
T4 sequence: T2 sequence

B1: VV3D8-4 (antibody, V domains shown)
VH: EVQLVESGGGLVQPGRSLRLSCAASGFTFDDYALHWVRQAPGKGLEWVSGISWNSGRIGYADSVKGRFTISRDNAKNSLFLQMNSLRAEDTALYYCAKGRDAFDIWGQGTLVTVSS
VL: DIQMTQSPSSVSASVGDRVTITCRASQGISSWLAWYQQKPGKAPKLLIYAASSLQSGVPSRFSGSGSGTDFTLTISSLQPEDFATYYCQQANSFPYTFGQGTKLEIK
notes: Human variable regions with mouse constant region
B2: VV6C10-1 (antibody, V domains shown)
VH: B1 VH with I51V, S55G, A88V
VL: EIVLTQSPATLSLSPGERATLSCRASQSVSSYLAWYQQKPGQAPRLLIYDASNRATGIPARFSGSGSGTDFTLTISSLEPEDFAFYYCQQRNNRPPFTFGPGTKVDVR
notes: as for B1
B3: VQ8F11-21 hIgG1 (antibody, V domains shown)
VH: B1 VH with G26R, L34M, K76E, S85G, A102S, L111M
VL: B1 VL with A50G, Q55E, T85S
B4: VQ8F11-21 hIgG4 (antibody, V domains shown)
VH: B1 VH with G26R, L34M, K76E, S85G, A102S, L111M
VL: B1 VL with A50G, Q55E, T85S
notes: Human IgG4 (wild-type) constant region
B5: VV6A9-5 hIgG1 (antibody, V domains shown)
VH: B1 VH with I51V, S55G, A88V
VL: B1 VL with Q90H, N92Y
notes: Human IgG1 constant region
B6: VV6A9-5 hIgG4 (antibody, V domains shown)
VH: B1 VH with I51V, S55G, A88V
VL: B1 VL with Q90H, N92Y
notes: Human IgG4 constant region
B7: VQ8A9-6 hIgG1 (antibody, V domains shown)
VH: EVQLVESGGNLVQPGRSLRLSCAASGFIFDDYAMHWVRQAPGKGLEWVSGISWNSGSIGYADSVKGRFTISRDNAKNSLYLQMNSLRAEDTALYYCAKDGGSSWLPFVYYYGMDVWGQGTTVTVSS
VL: EIVMTQSPATLSVSPGERATLSCRASQSISSNFAWYQQKPGQAPRLLIYGASTRATGIPARFSGSGSGTDFTLTISSLQSEDFAVYYCQQYSSWPPYTFGQGTKLEIK
notes: Human IgG1 constant region
B8: VQ8A9-6 hIgG4 (antibody, V domains shown)
VH: B7 VH
VL: B7 VL
notes: Human IgG4 constant region
B9: VQ1G4-21 hIgG1 (antibody, V domains shown)
VH: QVQLVQSGAEVKEPGASVKVSCKASGYTFTSYDIIWVRQATGQGLEWMGWMNPNSGNTGYTQNLQGRVTLTRNTSITTVYMELSSLSSEDTAVYYCARDYSSHYYGLDVWGQGTTVTVSS
VL: DIQLTQSPSFLSTSIGDRVTITCWASQDISNYLAWYQQKPGKAPKLLIFVASTLQSGVPSRFSGSGSGTEFTLTISSLQPEDFATYYCQQFNSYPLTFGGGTKVEIK
notes: Human IgG1 constant region
B10: VQ1G4-21 hIgG4 (antibody, V domains shown)
VH: B9 VH
VL: B9 VL
notes: Human IgG4 constant region
B11: VV6F12-11 (antibody, V domains shown)
VH: B9 VH with V20I, N57D, T58R, N73D, T77S, S87R, S102N
VL: B9 VL with T13A, I15V, K107R
notes: as for B1
B12: VV7G4-10 (antibody, V domains shown)
VH: QVQLVQSGAEVKKPGASVKVSCKASGYTFTSYGISWVRQAPGQGLEWMGWISAYNDDTNYAQKFQGRVTMTTDTSTSTAYMELRSLRSDDTAVYYCAREAQLVLYYYYGMDVWGQGTTVTVSS
VL: EIVLTQSPATLSLSPGERATLSCRASQSVSSFLAWNQQKPGQAPRLLIYDASNRATGIPARFSGSGSGTDFTLTISSLEPEDFAVYYCQQRSNWPYIFGQGTKLEIK
notes: as for B1
B13: VV9A6-11 (antibody, V domains shown)
VH: B12 VH
VL: B12 VL
notes: as for B1
B14: VV6C10-3 (antibody, V domains shown)
VH: QVQLVQSGAEVKKPGASVKVSCKASGFNFFHYGITWVRQAPGQGLEWMGWISTYNGDTIYAQKVQGRVTMTTDTATSTAYMELRSLRSDDTAVYYCARSEQQVDYYFYGMDVWGQGTTVTVSS
VL: B2 VL
notes: as for B1

Each binder was assayed against T1, hIL-6R on hIL-6-responsive human cells … (assay: cell-based or functional assay).

With B1 as the binder, how does the “XG-1 cell proliferation Inhibition IC50” value read?
Its value is > 100 nM.

Which “XG-1 cell proliferation Inhibition IC50” value does the source give for B2 here?
Its value is > 6.9 nM.

Biological target: T1, hIL-6R on hIL-6-responsive human cells …
Assay: cell-based or functional assay
Remark: another data set of the same source

Which “HepG2/STAT3 luciferase assay IC50” value does the source give for B3 here?
Its value is 0.15 nM.

For B4, which “HepG2/STAT3 luciferase assay IC50” value is on record?
The value was 0.228 nM.

With B5 as the binder, how does the “HepG2/STAT3 luciferase assay IC50” value read?
Its value is 0.204 nM.

How did the “HepG2/STAT3 luciferase assay IC50” value turn out when B6 was run?
The value was 0.343 nM.

Which “HepG2/STAT3 luciferase assay IC50” value does the source give for B7 here?
The value was 0.13 nM.

B8 was tested. Which “HepG2/STAT3 luciferase assay IC50” value did it give?
Its value is 0.185 nM.

With B9 as the binder, how does the “HepG2/STAT3 luciferase assay IC50” value read?
The value was 0.767 nM.

B10 was tested. Which “HepG2/STAT3 luciferase assay IC50” value did it give?
Its value is 0.528 nM.

The binders below were run against T2, recombinant hIL-6R protein, monomeric … (assay: Kinexa solution-phase competition immunoassay, monomeric hIL-6R).

B1 was tested. Which Kd did it give?
The Kd was 1.91 nM.

For B2, which Kd is on record?
Its Kd is 2.05 nM.

What follows are binders tested against T3, hIL-6R recombinant protein … (assay: SPR (BIAcore) competition on hIL-6R; competitor: control antibody).

With B1 as the binder, how does the “% reduction of binding by control antibody” value (“% reduction of binding” for short) read?
The value was 97%.

Which “% reduction of binding” value does the source give for B2 here?
The value was 90%.

Each binder was assayed against T4, hIL-6R-hFc (assay: SPR (BIAcore), antibody captured on anti-mouse IgG surface, dimeric hIL-6R).

With B1 as the binder, how does the Kd read?
The Kd was 0.172 nM.

With B2 as the binder, how does the Kd read?
The Kd was 0.032 nM.

Each binder was assayed against T2, recombinant hIL-6R protein, monomeric … (assay: SPR (BIAcore), antibody captured on anti-mouse IgG surface, monomeric hIL-6R).

B1 was tested. Which Kd did it give?
Its Kd is 2.41 nM.

How did the Kd turn out when B2 was run?
The Kd was 0.267 nM.

Each binder was assayed against T2, recombinant hIL-6R protein, monomeric … (assay: SPR (BIAcore), antibody captured on goat anti-human Fc, monomeric hIL-6R 1.56-12.5 nM).

B3 was tested. Which Kd did it give?
The Kd was 0.073 nM.

And the koff?
The koff was 4.54e-05 s⁻¹.

And the kon?
The kon was 622000 M⁻¹ s⁻¹.

Which Kd does the source give for B4 here?
The Kd was 0.073 nM.

And the koff?
The koff was 5.22e-05 s⁻¹.

And the kon?
The kon was 717000 M⁻¹ s⁻¹.

How did the Kd turn out when B5 was run?
The Kd was 0.125 nM.

And the koff?
Its koff is 8.87e-05 s⁻¹.

And the kon?
The kon was 712000 M⁻¹ s⁻¹.

Which results are given for B6?
Kd: 0.135 nM; koff: 7.64e-05 s⁻¹; kon: 567000 M⁻¹ s⁻¹

B7 was tested. Which Kd did it give?
The Kd was 0.238 nM.

What about the koff of the same binder?
Its koff is 0.00026 s⁻¹.

And the kon?
The kon was 1.09e+06 M⁻¹ s⁻¹.

With B8 as the binder, how does the Kd read?
The Kd was 0.201 nM.

What about the koff of the same binder?
The koff was 0.000235 s⁻¹.

What about the kon of the same binder?
The kon was 1.17e+06 M⁻¹ s⁻¹.

With B9 as the binder, how does the Kd read?
The Kd was 0.237 nM.

And the koff?
Its koff is 7.92e-05 s⁻¹.

And the kon?
The kon was 334000 M⁻¹ s⁻¹.

What does the source list for B10?
Kd: 0.336 nM; koff: 9.18e-05 s⁻¹; kon: 273000 M⁻¹ s⁻¹

What follows are binders tested against T4, hIL-6R-hFc (assay: SPR (BIAcore): hIL-6R-hFc captured, antibody injected, then 50 nM hIL-6; percent reduction in hIL-6 binding).

For B1, which “hIL6/hIL6R Binding Inhibition (%)” value is on record?
The value was 93%.

Which “hIL6/hIL6R Binding Inhibition (%)” value does the source give for B2 here?
The value was 61%.

What follows are binders tested against T4, hIL-6R-hFc (assay: blocking ELISA: 100 pM hIL-6R-hFc premixed with varied antibody, free hIL-6R-hFc captured on hIL-6-coated plate).

B1 was tested. Which IC50 did it give?
The IC50 was 0.61 nM.

Which IC50 does the source give for B11 here?
The IC50 was 2.2 nM.

With B2 as the binder, how does the IC50 read?
Its IC50 is 4.6 nM.

How did the IC50 turn out when B12 was run?
Its IC50 is 13 nM.

With B13 as the binder, how does the IC50 read?
The IC50 was 0.5 nM.

For B14, which IC50 is on record?
Its IC50 is 0.06 nM.

What follows are binders tested against T3, hIL-6R recombinant protein … (assay: competition ELISA on hIL-6R-coated plate presaturated with competitor control antibody; test antibody 50 ng/ml).

For B1, which “% reduction of binding” value is on record?
Its value is 84%.

Which “% reduction of binding” value does the source give for B11 here?
Its value is 3%.

Which “% reduction of binding” value does the source give for B2 here?
The value was 80%.

Which “% reduction of binding” value does the source give for B12 here?
The value was 26%.

How did the “% reduction of binding” value turn out when B13 was run?
The value was 18%.

B14 was tested. Which “% reduction of binding” value did it give?
The value was 1%.

What follows are binders tested against T4, hIL-6R-hFc (assay: competition ELISA: antibody premixed with serial dilutions of hIL-6R-hFc, free antibody detected on hIL-6R-hFc-coated plate).

With B1 as the binder, how does the IC50 read?
The IC50 was 0.013 nM.

B11 was tested. Which IC50 did it give?
The IC50 was 0.033 nM.

Which IC50 does the source give for B2 here?
Its IC50 is 0.01 nM.

With B12 as the binder, how does the IC50 read?
The IC50 was 1.98 nM.

How did the IC50 turn out when B13 was run?
Its IC50 is 0.347 nM.

B14 was tested. Which IC50 did it give?
The IC50 was 0.009 nM.
